# Literature values, collected in article PMC3369218 (Biochemistry, 2012).
# Changes are numbered by the printed parent chain. Names may count otherwise.
# B1: Cld from I. dechloratans: chlorite dismutase from Ideonella dechloratans (protein, UniProt Q9F437 39-285, looked up)
# Chlorite dismutase: AMNTPVDRAKILSAPGVFVAFSTYKIRPDYFKVALAERKGAADEVMAVLEKHKEKVIVDAYLTRGYEAKSDYFLRVHAYDAVAAQAFLVDFRATRFGMYSDVTESLVGITKALNYISKDKSPDLNKGLSGATYAGDAPRFAFMIPVKKNADWWNLTDEQRLKEMETHTLPTLPFLVNVKRKLYHSTGLDDTDFITYFETNDLGAFNNLMLSLAKVPENKYHVRWGNPTVLGTIQPIENLVKTLSMGN
# B2: WT CcP from S. cerevisiae: wild-type cytochrome c peroxidase (protein, UniProt P00431 68-361, looked up)
# Cytochrome c peroxidase, …: TTPLVHVASVEKGRSYEDFQKVYNAIALKLREDDEYDNYIGYGPVLVRLAWHTSGTWDKHDNTGGSYGGTYRFKKEFNDPSNAGLQNGFKFLEPIHKEFPWISSGDLFSLGGVTAVQEMQGPKIPWRCGRVDTPEDTTPDNGRLPDADKDADYVRTFFQRLNMNDREVVALMGAHALGKTHLKNSGYEGPWGAANNVFTNEFYLNLLNEDWKLEKNDANNEQWDSKSGYMMLPTDYSLIQDPKYLSIVKEYANDQDKFFKDFSKAFEKLLENGITFPKDAPSPFIFKTLEEQGL
# B3: CcP(R48K) from S. cerevisiae: cytochrome c peroxidase R48K distal pocket mutant (protein, UniProt P00431 68-361, looked up, variant R48K)
# Cytochrome c peroxidase, …: B2 Cytochrome c peroxidase, … with R48K
# Settings: for E′ (Fe^3+/Fe^2+): 25 °C, pH 7
Molecule,reduction potential,E′ (Fe^3+/Fe^2+)
B1,–21 mV,–0.021 V vs NHE
B2,,–0.189 V vs NHE
B3,,–0.186 V vs NHE
